Source: paper PMC8866119 (Nature, 2021)
Numbering of substitutions follows the chain as printed.

B1: BG4-25 (antibody, V domains shown)
VH: EVQLVESGGGLIQPGGSLRLSCAASGITVVRNYMTWVRQAPGKGLEWVSVIYSGGTTYYADSVKGRFTISRDNSKNTMYLQMNSLRAEDTAIYYCARDLEVVGAMDVWGQGTTVTVSS
VL: EIVLTQSPGTLSLSPGERATLSCRASQSVPSSYLAWYQQKPGQAPRLLIYGASSRATGIPDRFSGSGSGTDFTLTISRLEPEDFAVYYCQQYGSPMYTFGQGTKLEIK
B2: BD-914 (antibody, V domains shown)
VH: QVQLVQSGAEVTKPGSSVKVSCKTSGDTFSLYPISWVRQAPGQGLEWMGRIIPIVGIADYAQKFQGRVTITADKSTSTAYMELSSLRSEDTAIYYCARDGNQYYYDSGGDYYVNYWGQGTLITVSS
VL: DIQMTQSPSSLSASVGDRVTITCQASQDIRKDLNWYRQRPGKAPKLLIYDASNLETGVPSRFSGSGSGTHFTFTISGLQPEDVATYYCQQYDNVPVTFGPGTKVDIR
B3: BD-804 (antibody, V domains shown)
VH: EVQLVESGGGLVKPGGSLRLSCAASGFTFSNYDMNWVRQAPGKGLEWVSSISSSSTYTHYADSVKGRFTISRDNAKNSLYLQMNSLRAEDTAVYYCARDRAYRLGELSSLWGDDAFDIWGQGTMVTVSS
VL: AVWMTQSPSLLSASTGDRVTVSCRMSQDISSYLAWYQQKPGKAPELLIYAAFTLQSGVPSRFSGSGSGTEFTLTISSLQSEDFATYYCQQYYSFPHTFGQGTKLERR
B4: BD55-5293 (antibody, V domains shown)
VH: EVQLVQSGAEVKKPGESLKISCKTSGYSFISNWIGWVRQMPGKGLEWMGIIYPGDSDTRYSPSFQGQVTISVDKSISTAYLQWTSLKASDTAMYFCTRRGDYGEFGGFDGDWGQGTLVTVTS
VL: DIQMTQSSSSLSASVGDRVTITCRASQSTGRYLNWYQQKAGKAPKLVIYAVSSLQSGVPSRFSGSGSGTEFTLTINSLQPEDFATYYCQQTYSIPFTFGPGTKVDLK
B5: BD55-3152 (antibody, V domains shown)
VH: QVQLVQSGAEVKKPGASVIVSCKASGYRFISHYIHWVRQAPGQGLEWMGKIDPSGRGTTYAQKLQGRVSVTRDTSTSSVYMALSGLRSDDTAVYYCARDRFPLSDPYVWGSPLGGLDVWGQGTTVIVSS
VL: SYDLTQPPSVSVSPGQTARITCSGDALPSQYVYWYQQRPGQAPVLVMYKDSERPPGIPERFSGSTSGTTATLTITGVQAEDEADYYCQSADASTTYHVFGGGTKVTVV
B6: BD-614 (antibody, V domains shown)
VH: QVQLVESGGGLVQPGGSLRLSCAASGLIVSSNYMSWVRQAPGEGLEWVSVIYSGGSTYYADSVKGRFTISRDTSKNTLYLQMNSLRAEDTAVYYCARARIYTYGPDYWGQGTLVTVSS
VL: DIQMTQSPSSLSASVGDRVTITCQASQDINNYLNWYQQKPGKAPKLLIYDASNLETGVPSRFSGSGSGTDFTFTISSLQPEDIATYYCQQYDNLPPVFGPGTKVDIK
B7: COVOX-222 (antibody, V domains shown)
VH: EVQLVESGGGLIQPGGSLRLSCAASGLTVSSNYMSWVRQAPGKGLEWVSVIYSGGSTFYADSVKGRFTISRDNSKNTLYLQMNSLGAEDTAVYYCARGEGSPGNWFDPWGQGTLVTVSS
VL: DVVMTQSPGTLSLSPGERATLSCRASQSVPSSYLAWYQQKPGQAPRLLIYGASTRATGIPDRFSGSGSGTDFTLTISRLEPEDFAVYYCQHYDTSPRFGGGTKVDIK
B8: BD-618 (antibody, V domains shown)
VH: EVQLVESGGGLVQPGGSLRLSCAVSGFIVSRNYMTWVRQAPGKGLEWVSLIYSGGSTFYTNSVKGRFTISRDNSKNTLYLQMDSLRAEDTAVYYCARGPYPRFDYWGQGTLVTVSS
VL: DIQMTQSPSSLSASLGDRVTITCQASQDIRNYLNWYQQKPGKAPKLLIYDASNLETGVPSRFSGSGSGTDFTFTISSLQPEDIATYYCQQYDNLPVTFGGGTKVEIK
B9: S2E12 (antibody, V domains shown)
VH: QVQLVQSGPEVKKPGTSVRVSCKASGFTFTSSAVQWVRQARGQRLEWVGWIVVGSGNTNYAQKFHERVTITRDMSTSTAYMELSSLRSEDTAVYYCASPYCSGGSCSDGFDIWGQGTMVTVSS
VL: DIVLTQTPGTLSLSPGERATLSCRASQSVSSSYLAWYQQKPGQAPRLLIYGASSRATGIPDRFSGSGSGTDFTLTISRLEPEDFAVYYCQQYVGLTGWTFGQGTKVEIK
B10: BD-369 (antibody, V domains shown)
VH: EVQLVESGGGLVQPGGSLRLSCAASGITVSSNYMTWVRQAPGKGLEWVSLIYSGGSTYYADSVKGRFTISRDNSKNTLHLQMNSLRGEDTAVYYCARDLVAFGMDVWGQGTTVTVSS
VL: AIQLTQSPSSLSASVGDRVTITCRASQGISSYLAWYQQKPGKAPKLLIYAASTLQGGVPSRFSGSGSGTDFTLTISSLQSEDSATYYCQQLNSDTPTFGPGTKVEIK
B11: BD-566 (antibody, V domains shown)
VH: QVQLVESGGGVVQPGRSLRLSCAASGFTFRSYGMHWVRQAPGKGLEWVAVISKDGSNKYYADSVKGRFTISRDNSKNTLYLQWNSLRAEDTAVYYCARALVVPGAPRYYYYGMDVWGQGTTVTVSS
VL: AIQLTQSPSSLSASVGDRVTITCRASQGISSALAWYQQRPGKAPKLLIYDASTLESGVPSRFSGSGSGTDFTLTISSLQPEDFATYYCQQFNTYPWTFGQGTKVELK
B12: COV2-2072 (antibody, V domains shown)
VH: QMQLVQSGPEVKKPGTSVKVSCKTSGFTFTSSAIQWVRQARGQRLEWIGWIVVGSGNTNYAQKFQERVTITRDMSTSTAYMELSSLRSEDTAVYYCAAPHCNRTSCYDAFDLWGQGTMVTVSS
VL: not shown
B13: COV2-2381 (antibody, V domains shown)
VH: B12 VH with T24A, I34V, V52A, T69S, H100Y, N102S, Y107H, L112I, M118K
VL: EVVLTQSPGTLSLSPGERATLSCRASQSVSSSYLAWYQQKPGQAPRLLIYGASSRATGIPDRFSGSGSGTDFTLTISRLEPEDFAVYHCQHFGSSSQWTFGQGTKVEIK
B14: LY-CoV1404 (antibody, V domains shown)
VH: QITLKESGPTLVKPTQTLTLTCTFSGFSLSISGVGVGWLRQPPGKALEWLALIYWDDDKRYSPSLKSRLTISKDTSKNQVVLKMTNIDPVDTATYYCAHHSISTIFDHWGQGTLVTVSS
VL: QSALTQPASVSGSPGQSITISCTATSSDVGDYNYVSWYQQHPGKAPKLMIFEVSDRPSGISNRFSGSKSGNTASLTISGLQAEDEADYYCSSYTTSSAVFGGGTKLTVL
B15: BD55-1962 (antibody, V domains shown)
VH: QVQLVQSGAEVKKPGSSVKVSCTASGDSFSSYAITWVRQAPGQGLEWMGRIIPILGIANYAQKFQGRVTLTADKSAGTAYMELSSLRSDDTAVYYCASGYDFHFDYWGQGTLVTVYS
VL: QSALTQPASVSGSPGQSITISCTGTSSDVGDYKYVSWYQQHAGKAPKLMIHDVSKRPSGVSSRFSGSKSGNTASLTISGLQAEDEADYYCSSYTSSSSWVFGGGTKLTVL
B16: BD55-387 (antibody, V domains shown)
VH: QITLKESGPTLVKPTQTLTLTCTFSGFSLSTSGVGVGWIRQPPGKALEWLALIYWDDDKRYSPALKSRLTITEDTSKNQVVLTMTNMDPVDTATYYCAHCAPAWNYFDYWGQGTLVAVSS
VL: QSVLTQPPSVSGAPGQRVTISCTGSSSNIGAGYDVHWYQQLPGTAPKLLIYRNSNRPSGVPGRFSGSKSGTSASLAITGLQAEDEADYFCQSYDSSLSGWVFGGGTKLTVL
B17: BD-932 (antibody, V domains shown)
VH: EVQLVESGGALVHPGRSLRLSCTASGFTFEDYAMHWVRQAPGKGLEWVSGVSWNSGTIGYADSVKGRFIISRDNAKNSLYLQMLSLRVEDTAFYYCAKHGGLLDTSLDQYYFDYWGQGTLVTVSS
VL: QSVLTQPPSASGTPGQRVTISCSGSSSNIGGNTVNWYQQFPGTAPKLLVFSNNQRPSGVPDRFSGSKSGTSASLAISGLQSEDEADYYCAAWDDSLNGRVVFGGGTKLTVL
B18: BD55-1104 (antibody, V domains shown)
VH: EVQLVQSGAEVKKPGESLKISCKGSGYSFTTYWTGWVRQVPGKGLEWMGLIYPRDSDARYTPSFEGHVTISADNSINTAYLHWSSLKASDTAIYYCVSAGDTGWRGHADYWGQGTLVTVSS
VL: DIQMTQSPSSLSASVGDRVTITCRASLDIRNYLVWFQQKPGTAPKSLIYEASTLQSGVPSRFSGSGSGTDFTLTISSLRPEDFATYYCQQYNTWPFTFGGGTKVEIK
B19: BD-812 (antibody, V domains shown)
VH: EVQLVQSGAEVKKPGESLKISCQFSEYKLISFWIAWVRQRPGKGLEWMGIIYPDDSDTKYSPSSQGQVTISADKSIRTAYLQWSSLMASDTAMYYCTSGSYYGTLDFWGQGTLVTVSS
VL: DIEITQSPSSLSASVGDRVTISCRASQDIRTYVAWYQQRPGKVPRLLIYAASTLQSGVPSRFSGRGSGTDFTLTISSLQPEDVATYYCQQYNSAPLTFGGGAKVEIK
B20: BD55-3637 (antibody, V domains shown)
VH: QVQLVESGGGVVQPGRSLRLSCAASGFTFSTYGMHWVRQAPGKGLQWVAFISDGGNKKYFADSVKGRFTISRDNSKNTLYLQMSSLRTEDTAVYYCAKERYCAGGDCSNPFFDYWGQGTLVTVSS
VL: DIQVTQSPSSLSASVGDRVTITCRASQSISSSLNWYQHKPGNAPKLLIYAASSLQSGVPSRFSGSGSGTDFILTISSLQPEDFATYYCQQSHSFPRTFGQGTKVEFR
B21: BD-744 (antibody, V domains shown)
VH: EVQLVESGGGLVQPGRSLRLSCAASGFTFDDYAMHWVRQAPGKGLEWVSGASWNSGTIGYADSVKGRFIIIRDNAKNSLYLQMNSLRSEDTASYYCAKDFSRDGDAFDIWGQGTMVTVSS
VL: SYVLPQPPSVSVAPGKTARITCGGNNIEHKSVHWYQQKPRQAPVVVMYYDSDRPSGIPERFSGSNSGNTATLIISRVEAGDEAEYYCQVWDRSSDQPVFGGGTKLTVL
B22: BD55-5386 (antibody, V domains shown)
VH: QVQLLQSGAEVKKPGSSVTVSCKASGGTFTNSAINWVRQAPGQGLEWIGGIIPIIGPTSYAQKFQGRVTITADESSTTAYLDLRSLRSDDTAVYYCAKAHCGDCTPPRGYYFYYFGMDVWGQGTTVTVSS
VL: SYELTQPPSVSVSPGQTARITCSGDALPKQYSYWYQQRPGQAPVLLIYKDNERPSGIPERFSGSSSGTTVTLTISGVQAEDEADYYCQSADASSTYVVFGGGTKLTVL
B23: BD55-1706 (antibody, V domains shown)
VH: QVQLQESGPGLLKPSETLSLTCTVSGGSINSYYWNWIRQSPRKGLEWIGYIFFSGSTNYNPSLKSRVTISLDRSKNQFSVHLRSVTAADTAVYYCARGDSKTGYDLELFDYWGHGTLVTVSS
VL: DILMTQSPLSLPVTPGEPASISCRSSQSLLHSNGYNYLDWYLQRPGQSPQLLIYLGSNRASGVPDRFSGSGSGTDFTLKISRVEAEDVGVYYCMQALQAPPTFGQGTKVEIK
B24: BD-836 (antibody, V domains shown)
VH: QVQLVQSGPEVKKPGTSVRVSCKASGFTFSTSAVQWVRQARGQRLEWIGWIAVGSGKTDYLQKFQERVTMTRDESTNTAYMQLSSLRSEDTAVYYCAAPHCSGGTCYDGFDIWGQGTLVTVSS
VL: EIVLTQSPGTLSLSPGERATLSCRASQSVRSGYFAWYQQRPGRAPRLLIYGASSRATAIPDRFSGSGSGTDFTLTINRLEPEDFAVYYCQQYGTSPWTFGQGTKVEIK

Biological target: SARS-CoV-2 Omicron (B.1.1.529) RBD (SARS-CoV-2 Omicron B.1.1.529 (BA.1), strain)

| Binder | binding result |
| --- | --- |
| B1 | binds |
| B2 | binds |
| B3 | binds |
| B4 | binds |
| B5 | binds |
| B6 | binds |
| B7 | binds |
| B8 | binds |
| B9 | binds |
| B10 | binds |
| B11 | binds |
| B12 | binds |
| B13 | binds |
| B14 | binds |
| B15 | binds |
| B16 | binds |
| B17 | binds |
| B18 | binds |
| B19 | binds |
| B20 | binds |
| B21 | binds |
| B22 | binds |
| B23 | binds |
| B24 | binds |
